# Measurements: the nanobody polyreactivity screen of Harvey et al. (2022)
# Assay: yeast display, Sf9 membrane polyspecificity reagent, FACS + sequencing; frameworks hold sequencing errors
# Summary of the method: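 Genes from sorted yeast were amplified by colony PCR, read by MiSeq 2 × 250 sequencing and filtered on CDR length. These cells carried a synthetic nanobody library in Saccharomyces cerevisiae BJ5465 and were sorted by FACS into low and high (top ~1%) gates on anti-HA and streptavidin fluorescence. Polyreactivity is labelled according to the gate of origin.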
row,Sequence,polyreactivity (PSR sort gate)
1,QVQLVESGGGLVQAGGSLRLSCAASGLIFRRYAMGWYIQAPGKEREFVAAIRYTGGGTYYADSVKGRFTISRDNAKNTVYLQMNRLKPEDTAVYYCNTVEYRWGYISKVPKYDYWGQGTQVTLSS,high polyreactivity
2,QVQLVESGGGLVQAGGSLRLSCAASGLIFRRYAMGWYRQAPGKERELVAAITIGGSTSYADSVKGRFTISRDNAKNTVYLQMNSLKPEDTAVYYCAARWGALWYRPYDYWGQGTQVTVSS,high polyreactivity
3,QVQLVESGGGLVQAGGSLRLSCAASGLIFRTYTMGWYRQAPGKERELVATITRRCGTTYYADSVKGRFTISRDNAKNTVYLQMNSLKPEDTAVYYFAKSPYYTWKYDYWGQGTQVTVSS,high polyreactivity
4,QVQLVESGGGLVQAGGSLRLSCAASGLIFRWYAMGWYRQAPGKERELDAAISTSGGRTYYADSVKGRFTISRDNAKNTVYLQMNSLKPEDTAVYYCNAQHASWYTAYSVSFDYWGQGTQVTVSS,low polyreactivity
5,QVQLVESGGGLVQAGGSLRLSCAASGLIFRWYAMGWYRQAPGKEREMVAAITSGGTTNYADSVTGRFTISRDNAKNTVYFQMNSLKPEHSAVYSCNAIVLSYSRYDYWGQGTQVTVSS,high polyreactivity
6,QVQLVESGGGLVQAGGSLRLSCAASGLIFRYNAMGWSRQAPGKERELVAAISRSGGTTYYADSVKGRFTISRDNAKNTVYLQMNSLKPEDTAVYYCATRISQSYYNYGYWGQGTQVTVSS,high polyreactivity
7,QVQLVESGGGLVQAGGSLRLSCAASGLIFRYYAKGWYRQAPGKERELFAAISLRGGSTYYADSVKGRFTISRDNAKNNVYLQMNSLKPEDTAVYYCAAQWASFSVANLYGYWGQGTQVTVSS,high polyreactivity
8,QVQLVESGGGLVQAGGSLRLSCAASGLIFRYYAMGWYRQAPGKERELVAAITWRGGRTYYADSVKGRFTISRDNAKNTVYLQMNSLKPEDTAVYYCNKDGPYQVITYDYWGQGTQVTVSS,high polyreactivity
9,QVQLVESGGGLVQAGGSLRLSCAASGLIFRYYSMAWYRQAPGKERELVAAISKSGDRTYYADSVKGRFTISRDNAKNTVYLEMNSLKPEATGVYYCAADSYPSPNFEDNYWGQGTQVTVSS,low polyreactivity
10,QVQLVESGGGLVQAGGSLRLSCAASGLIFSAYDMGWYRQAPGKERELVASITSGGSTYYADSVKGRFTISRDNAKNTVYLQMNSLKPEDTAVYYCNADGGWYQYRWRYIEGEYWGQGTQVTLSS,low polyreactivity
11,QVQLVESGGGLVQAGGSLRLSCAASGLIFSFYALGWYRQAPGKERELVAAINRSGGSTYYADSVKGRFTISRDNSKNTVYLQMNSLKPEDTAVYYCAARNAFGTYYYWGQGTQVTVSS,high polyreactivity
12,QVQLVESGGGLVQAGGSLRLSCAASGLIFSFYDMGWYRQAPGKEREFVAAISGSGGSTYYADSVKGRFTISRDNEKNTVYLHMNILKPEDTAVYYCAAEYFTFYWKLDYWGQGTQVTVSS,high polyreactivity
13,QVQLVESGGGLVQAGGSLRLSCAASGLIFSGYAMGWYRQAPGKERELVAAISRGGGRTSYADSVKGRFTISRDNAKNTVYLQMNSLKPEDTAVYYCAKDPRYLRYEHWGQGSQVTVSS,high polyreactivity
14,QVQLVESGGGLVQAGGSLRLSCAASGLIFSGYDMGWYRQAPGKERELVAAITWSGGRTYADSVKGRFTISRDNAKNTVYLQMNSLKPEDTAVYYCNADAYIDYWPYTWDYDYWGQGTQVTVSS,high polyreactivity
15,QVQLVESGGGLVQAGGSLRLSCAASGLIFSNYAMGWYRQAPGKERELVAAITRTATTKYADSVKGRFTISRDNAKNTVYLQMNSLKPEDSAVYYCAARSYHDRYNSWTDRYGFWGQGTQVTVSS,high polyreactivity
16,QVQLVESGGGLVQAGGSLRLSCAASGLIFSPYAMGWYRQAPGKERELVAAISWRGGRTSYADSVKGRFTISRDNAKNTVYLQMNSLKPEDTAVYYCATRNSSKRRGYYYWGQGTQVTVSS,high polyreactivity
17,QVQLVESGGGLVQAGGSLRLSCAASGLIFSRNAMGWYRQAPGKERELVAAISGGGGSTYYADSVKGRFTISRDNAKNNVYLQMHSLKQEATAVYDCAAKGYWWRTPWIATYDYWGQGTQVTVSS,high polyreactivity
18,QVQLVESGGGLVQAGGSLRLSCAASGLIFSRYAMGWYRQAPGKERELVAAISTRGGSTYYADSVKGRFTISRDTAKNTVYLQMNSLKPEDTAVYYCNADIYGTFRVGQGYDYWGQGTQVTVSS,high polyreactivity
19,QVQLVESGGGLVQAGGSLRLSCAASGLIFSRYAMGWYRQAPGKERELVAVISWSGGRTYYSDSVKGRFTISRDNAKNTVYLQMNSLQPEDTAVYYCAADYKSGGSRYDYWGQGTQVTVSS,high polyreactivity
20,QVQLVESGGGLVQAGGSLRLSCAASGLIFSSNAMGWYRQAPGKERELVAAISRRGGNTYYADSVKGRFTISRDNAKNTVYLQMNSLKPEDTAVYYCAARRYYVASIYRYDSWGQGTQVTVSS,high polyreactivity
21,QVQLVESGGGLVQAGGSLRLSCAASGLIFSSNAMGWYRQAPGKERELVATISWSGGSTYYADSVKGRFTISRDNAKNTVYLQMNSLKPEDTAVYYCAAVTHPAWAVEYDYWGQGTQVTVSS,high polyreactivity
22,QVQLVESGGGLVQAGGSLRLSCAASGLIFSVNAMGWYRQAPGKERELVAAITWSSGRTYYADSVKGRFTISRDNAKNSVYLQMISLKPEDTAVYYCAGVSYWYGLMYYWGQGTQVTVSS,high polyreactivity
23,QVQLVESGGGLVQAGGSLRLSCAASGLIFSYNAMGWYRQAPGTEMELVASITGGGSTYYADSVKGRFTISRDNAKNTVYFQIKSQKPEDTAVYYCAVVRLWYAQPAAGFRAGGGYWGQGTQVTLSS,low polyreactivity
24,QVQLVESGGGLVQAGGSLRLSCAASGLIFSYYAMGWYRQAPGKEMELVAAITSDDSTYYADSVKGRFTISRDNAKNTVYLQINSLKPEDTAVYYCAARYTMYDTGESSRTYTGFNYWGQGTQVTVSS,low polyreactivity
25,QVQLVESGGGLVQAGGSLRLSCAASGLIFSYYAMGWYRQAPGKERELVAAISWSGGSTYYADSVKGRFTISRDNAKNTVYLQMNSLKPEDTAVYYCAADRISADYDYWGQGTQVTVSS,low polyreactivity
26,QVQLVESGGGLVQAGGSLRLSCAASGLIFTTNAMGWYRQAPGKERELVAAISTSTGRTYYADSVKGRFTISRDNAKNTVYLQMNSLKPEDTAVYYCARGSRYVGTQRHYYKYDYWGQGTQVTVSS,high polyreactivity
27,QVQLVESGGGLVQAGGSLRLSCAASGLIFVANTMGWYRQATGKERELVAAITSDGGSTSYADSVKGRFTISRDNAKNTVYLQMNSLKPEDTAVYHCAAEYGGSSAKYGYWGQGTQVTVSS,low polyreactivity
28,QVQLVESGGGLVQAGGSLRLSCAASGLIFVGYAMGWYRQAPGKERELVAAITSGGSTKYADSVKGRFTISRDNAKNTVYLQMNSLKPEDTAVYYCAASGWRNWWSARNYYWGQGTQVTVSS,low polyreactivity
29,QVQLVESGGGLVQAGGSLRLSCAASGLIFVGYVMGWYRQAPGKERELVAAITSSSGSTYYADSVKGRFTISRDNAKNTVYLQKNSLKPEDTAVYYCAAEWGYYWYYDSEYWGQGTQVTVSS,high polyreactivity
30,QVQLVESGGGLVQAGGSLRLSCAASGLIFVINAMGWYRQAPGKERELVATISSGVSTNYADSVKGRFTISRDNAKNTVYLQMNSLKPEDTAVYYCKKGQTVSRGYRLYERYDYWGQGTQVTVSS,low polyreactivity
